Test results: the nanobody polyreactivity screen of Harvey et al. (2022)

assay: yeast display, Sf9 membrane polyspecificity reagent, FACS + sequencing; frameworks hold sequencing errors
In short: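 Synthetic nanobody libraries on Saccharomyces cerevisiae BJ5465 were galactose-induced for 36–48 hours, stained 1 hour at 4 °C with 10% biotinylated, detergent-solubilized Sf9 membrane reagent and enriched on streptavidin microbeads. FACS then separated cells into low and high (top ~1%) gates by anti-HA (expression) and streptavidin (reagent binding) fluorescence. Genes were colony-PCR amplified, MiSeq 2 × 250 sequenced and CDR-length filtered. A clone's polyreactivity label is that of its gate of origin.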

Sequence | polyreactivity (PSR sort gate)
QVQLVESGGGLVQAGGSHRLSCAASGSIFVYNAMGCYIQAPGKERELVAGITFIGGSTYYADSVKGRFTISRDNAKNTVYLQMNSLKPEDTAVYYCNADVAPGIFYGYDSWGQGTQVTVSS | low polyreactivity
QVQLVESGGGLVQAGGSHRLSCAASGSTFKNYPMGGYRQAPGQEREFVAAINVSGARTYYADSVKGRFTISRDNAKNTVYLQMNSLKPEDTAVYYCAAYYSGVGYDYWGQGTQVTVSS | high polyreactivity
QVQLVESGGGLVQAGGSHRLSCAASGSTFLRYAMGWYRQAPGKERELVAAITASGGSTYYADSVKGRFTISRDNAKNTVYLQMNCLKAEDTAVYYCAADGRFIGKNSHDLWIYGYYYWGQGTQVTVSS | low polyreactivity
QVQLVESGGGLVQAGGSHRLSCAASGSTFQYYAMGWYRQAPGKERELVAAISKSGGITYYADSVKGRFTISRDYAKYTVYLQMNILKPEDTAVYYCNAYSASGYDYWGQGSQVTVSS | high polyreactivity
QVQLVESGGGLVQAGGSHRLSCAASGSTFTTNAMGWYRQAPGKERELVAAISRRGGSTYYADSVKGRFTISRDNAKNTVYLQMNSLKPEDTAVYYCNAVRAEYEFDYWGQGTQVTVSS | high polyreactivity
QVQLVESGGGLVQAGGSHRLSCAASGSTFYRYAMGWYRQAPGKEREFVAAISTRGGSTHYADSVKGRFTISRDNAKNTVYLQMNSLKPEDTAVYYCNARGYYSVPSNTGIRYYRFDYWGQGTQVTLSS | low polyreactivity
QVQLVESGGGLVQAGGSHRLSCAASGYTFPLYAMGWYRQAPGKERELVADINIGGASTYYADSVKGRFTISRDNAKNTVYLQMNSLKPEDTAVYYCAKEYYDGYFPTFDYDYWGQGTQVTVSS | low polyreactivity
QVQLVESGGGLVQAGGSHRLSCAATGLTFAYYDMGWYRQAPGKERELVAAITSGGTTNYADSVKGRFTISRDNAKNTVYLQMNSLKPEDTAVYYCNADYYSRIVGVRIYDYWGQGTQVTVSS | low polyreactivity
QVQLVESGGGLVQAGGSHRLSCPASGLTFYSNAMGWYRQSPGKERELVASISYRGGITYYADSLKGRFTISRDNAKNTVYLQMNSLKPEDTAVYYGAAGRKGSMYYWGQGTQVTVSS | high polyreactivity
QVQLVESGGGLVQAGGSHRLSCSASGRIFARNVMGWYRQAPGKERELVAAITYSGGRTYYADSVKGRFTISRDNAKNTVYLQMNSLKPEDTAVYYCNAKSFSPPGYRGFDYWGQGTQVTVSS | low polyreactivity
QVQLVESGGGLVQAGGSHRLSFAASGSIFWRNAMGWYRQAPGKERELVAVISGGSTYADSVKGRFTISRDNAKNTVYLKMNSLKPEDTAVYFCNADLYVSSYPKGYDYWGQGTQVTVSS | low polyreactivity
QVQLVESGGGLVQAGGSHRLSSAASGSTFAYHHMGWYRQAPGKEREFVADIRSGGNTNYADSVKGRFTISRDNAKKTVYLLMNSLNPEDTAVYYCATDGYRIDVYHPDYRYDYWGQGSQVTVSS | low polyreactivity
QVQLVESGGGLVQAGGSIRISCAASGSIFIIYAMGWYRQATGKEWELVAGIRGRCGSTYYADSVKGRFTISRDNAKNTVYLQMNSLKPEDTAVYYCDASVYRGYNYWGQGTQVTVSW | high polyreactivity
QVQLVESGGGLVQAGGSIRLSCAASGFISYYYAMGWYRQAPGKERELVAAITKSGGSTYYADSVKGRFTISRDNAKNTVYLQMNSLKPEDTAVDYCAAVRSTRNSTSRLYGYWGQGTQVNVSS | low polyreactivity
QVQLVESGGGLVQAGGSIRLSCAASGFTFDQYAMGWYRQAPGKERELVAAISSGTRTYYADSVKGRFTISRDNAKNTVYLQMNSLKPEDTAVYYCIARSVRYRDLYDYWGQGTQVTVSS | low polyreactivity
QVQLVESGGGLVQAGGSIRLSCAASGITFRPNAMGWYRQAPGKERELVAAISSGDGTYADSVKGRFTISRDNAKNTVYLQMNSLKPEDTAVYYCNATGQSYVTSEYDYWGQGTQVTVSS | low polyreactivity

Sequence | polyreactivity (PSR sort gate)
QVQLVESGGGLVQAGGSIRLSCAASGRIFHLYAMGWYRQAPGKERELVAAISRGGDTYYADSVKGRFTISRDNAKNTVYLQMYSLKPEDTAVYYCAAGRWVYTVGYYPVGYYYWGQGTQVTVSS | high polyreactivity
QVQLVESGGGLVQAGGSIRLSCAASGRIFKGYAMGSYRQAPGKERELVAAISSRGGITYYADSVKGRFTISRDNAKNSVYLEMNSLNPEDTAVYYCAAVYKWSRYGGYKYWGQGTQVTVSS | low polyreactivity
QVQLVESGGGLVQAGGSIRLSCAASGRIFQYYAMGWYRQAPGKERELVAAISRSGGRTRYADSVKGRFTISRDNAKNTVYLQMNSLKPEDTAVYYCAASYGYDSTSLYDYWGQGTQVTVSS | high polyreactivity
QVQLVESGGGLVQAGGSIRLSCAASGRTFHYNVMGGYRQAPGNERELVAAITNTGGSTYYADSVKGRFTISRDNAKNTVYLQMYSLKPVDTAVYYCAAVIWGRRYGAYPYEYWGQGTQVTVSS | low polyreactivity
QVQLVESGGGLVQAGGSIRLSCAASGSIFGAYAMGWYRQAPGKERELVATITLRDGSTYYADSVKGRFTSSRDNAKNTVYLQMNSLKPEDTAVYYCATYYSAINYGWSKTILYDYWGQGTQVTVSS | low polyreactivity
QVQLVESGGGLVQAGGSIRLSCAASGSIFRIYVMGWYRQAPGQERELVAAINSGGRTKYADSVKARFTISRDNAKNTVYLQMNSLKPEDTAVYYCAAAFQYRKGVSSLYASWGQGTQVTLSS | high polyreactivity
QVQLVESGGGLVQAGGSIRLSCAASGSTFGGNAMGWYRQAPGKERELVAAITGTGGRTFYADSVKGRFTISRDNAKNTVYLQMNSLKPEDTAVYFCAADSYIYSVNYWGQGTQVTVSS | low polyreactivity
QVQLVESGGGLVQAGGSIRLSCAASGSTFRVYAMGWYRQAPGKERELVAAISSSGGITYYADSVKGRFTISRDNAKNTVYLQMNSLKPEDTAVYYCAKGTVIHVLYDYWGQGTQVTVSS | low polyreactivity
QVQLVESGGGLVQAGGSIRLSCAASGSTFYAYAMGWYRQAPGKERELVAAIDTGGSTYYADSVKGRFTISRDNAKNTVYLQMNSLKPEDTAVYYCNAVVDTTEYPYEYDYWGQGTQVTVSS | low polyreactivity
QVQLVESGGGLVQAGGSIRLSCAASVFTFRANGMGWYRKAPGKERELVATITSGGTTNYADSVKGRFTISRDNAKNTVYLQMNSLIPEDTAVYYCNAGSVSDRQMDYWGQGTQGTVSS | low polyreactivity
QVQLVESGGGLVQAGGSIRLSCAPSGSPNVTYDMGWYRQAPGKESELVASISRGGSTKYADSVKGRFTISRDNAKNTVFLQMNSLKPEDTAVFYGAAKAKNYRLGPYDYWGQGTQVTVSS | low polyreactivity
QVQLVESGGGLVQAGGSIRLSCSASGRIFNRNAMGWYRKAPGKERELVAAISSDTSTNYADSVKGRFTISRDNAKNNVYLQMNSLKPEDTAVYYCNADGYYDMDYWGQGTQVTVSS | low polyreactivity
QVQLVESGGGLVQAGGSIRLTCAASGLIIGVYAKGWYRQAPGKERELVAAITDGGSTYYADSVKGRFTISRDNEQNTVSLQMNSVKPEDTAVYYCAREQGVNRNHDYWGQGTQVTVSS | low polyreactivity
QVQLVESGGGLVQAGGSLGLSCAASGFIVGYYTMGWDRQAPGKERELVAAISSSGGRTYDADSVKGRFTISRDKAKNTVYFQMNSLKPEDTAVYYCNADRTLRFGYGYCGQGTQVTVSS | low polyreactivity
QVQLVESGGGLVQAGGSLGLSCAASGIIFGTYGMGWYRQAPGKERELVAAITTRGSSTYYADSVKGRFTISRDNAKNSVYLQMNSLKPEDTAVYYCAAVSVRRNRMDSWGQGTQVTVSS | high polyreactivity
QVQLVESGGGLVQAGGSLGLSCAASGLIFQAYAMGWYRQAPGKERELVAAINWSGDSTYYADSVKGRFTISRDNAKYTVYLQMNSLKPEDTAVYYCAARYRRAKYGYWGQGTQVTVSS | high polyreactivity
